Results published in patent US20170137504A1 (TERACLON IDF S L, published 2017).

B1: anti-VEGF vNAR V19 (VNAR, not shown: small tags and cut ends)
VNAR: AQRVEQTPRTATKETGESLTINCVLRDASFELKDTGWYRTKLGSTNEQSISIGGRYVETVNKGSKSFSLRISDLRVEDSGTYKCQAFYSLPLGDYNYSLLFRGEKGAGTVLTVN
B2: anti-VEGF vNAR V32R (VNAR, not shown: small tags and cut ends)
chain: AASLDQTPRTATRETGESLTINCVFTDSSCGLCGTSWFRNNPGSTDWERITIGGRYVESVNKGAKSFSLQIKDLTVEDSVTYYCKAQGHRYFSKVCELRCPSYYYDGAGTVLTVN
B3: anti-VEGF vNAR V13 (other, not shown: small tags and cut ends)
chain: ASLDQTPRTATRETGESLSINCVLTDTSHILFGTKWLWNNPGSTDWESITIGGRYAESVNNQAKSFSLQIKDLTVEDSGTYYCKAQTIGRRKNLLPRPLVNGIAAMGYSSSDYDGAGTVLTVN

Columns and labels:
[1] = biological target: T1, VEGF (4 ng/mL, added in the in vitro angiogenesis assay) (UniProt P15692-4 27-191, limits assumed); assay: cell-based or functional assay
[2] = biological target: T1, VEGF (4 ng/mL, added in the in vitro …); assay: cell-based or functional assay; remark: listed apart in the source

T1 sequence (P15692 other isoform, or with tags, fused parts or gaps limits assumed): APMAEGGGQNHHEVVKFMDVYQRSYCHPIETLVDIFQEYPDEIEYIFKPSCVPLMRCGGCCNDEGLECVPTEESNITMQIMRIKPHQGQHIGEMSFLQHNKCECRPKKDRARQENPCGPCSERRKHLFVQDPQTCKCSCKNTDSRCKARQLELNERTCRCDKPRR

Binder	fold less antibody concentration than V13 for an inhibitory effect on angiogenesis [1]	IC50, average value (in vitro angiogenesis, HUVEC/NHDF co-culture) [2]	IC50, branching points (in vitro angiogenesis, HUVEC/NHDF co-culture) [2]	IC50, length of the tubes (in vitro angiogenesis, HUVEC/NHDF co-culture) [2]
B1	≤ 12 times less	30.2 µg/mL	24.7 µg/mL	35.8 µg/mL
B2	≤ 12 times less	23.4 µg/mL	19.3 µg/mL	27.6 µg/mL
B3	–	388 µg/mL	340 µg/mL	436 µg/mL
